Measured values: article PMC6668441, “Comparative Study of Subcutaneous and Orthotopic Mouse Models of Prostate Cancer: Vascular Perfusion, Vasculature Density, Hypoxic Burden and BB2r-Targeting Efficacy” (Scientific Reports, 2019)

Assay: Radiochemical stability in stabilizing buffers (RP-HPLC)
Assay type: physicochemical
Details: PBS, 0.37 MBq in 1 mL, 4 °C, 72 h
Procedure: Briefly, 0.37 MBq of radiolabeled compounds were incubated with 1 mL of: A) PBS; B) ascorbic acid in 0.9% sodium chloride solution (40 mg/ml); and C) Selenomethionine (0.2 mg/ml) and ascorbic acid (40 mg/ml) in 0.9% sodium chloride solution at 4 °C for 24, 48 and 72 h. The stability of the radioconjugate at each time point was calculated based on the integration of the RP-HPLC chromatograms.
Peptide synthesis was performed using an automated solid-phase peptide synthesizer employing traditional Fmoc chemistry and using a Rink Amide resin. Briefly, the resin (100 µmol of the resin substituted peptide anchors) was deprotected using piperidine, resulting in the formation of a primary amine from which the C-terminus of the growing peptide was anchored.
The Fmoc protected amino acids (300 µmol) with appropriate orthogonal protection were activated with HBTU and sequentially added to the resin. […] All conjugate were peak purified to • 95% purity and quantified by RP-HPLC prior to in vitro/in vivo investigations. […]
The partition coefficient was determined for the 177Lu-labeled conjugate. […] Aliquots of 100 µL were taken from each layer and the radioactivity of each was quantified by a Ȗ-counter. […]

CSCC[C@H](NC(=O)[C@H](CC(C)C)NC(=O)[C@H](Cc1c[nH]cn1)NC(=O)CNC(=O)[C@@H](NC(=O)[C@H](C)NC(=O)[C@H](Cc1c[nH]c2ccccc12)NC(=O)[C@H](CCC(N)=O)NC(=O)CCOCCOCCOCCOCCNC(=O)[C@@H](CO)NC(=O)[C@@H](CO)NC(=O)[C@@H](CO)NC(=O)[C@@H](CO)NC(=O)[C@@H](CO)NC(=O)CN1CCN(CC(=O)O)CCN(CC(=O)O)CCN(CC(=O)O)CC1)C(C)C)C(N)=O [[^177Lu]Lu-DOTA-SP714, metal not drawn]
radiolytic degradation: 39.9%
